Data set [1] deals with L-fucose isomerase from Raoultella sp. KDH14 (RdFucI) (Raoultella sp. KDH14). Nature of the data set: SEC; analytical size-exclusion chromatography, Superdex 200 10/300 GL, 10 mM Tris-HCl, 200 mM NaCl, pH 8.0; calibrated with standard proteins. A general note: Size exclusion chromatography separates by hydrodynamic size, large species first.
For data set [2] the target is unchanged. Nature of the data set: crystal structure; six subunits in the asymmetric unit; crystals grown in 0.1 M HEPES pH 7.5, 20% (w/v) PEG 10,000 at 20 °C; also soaked with 10 mM Mn2+.
Substrate in data set [3]: O=C(CO)[C@H](O)[C@H](O)CO
Briefly: isomerase kinetics, D-ribulose to D-arabinose. It is filed as biochemical, Klebsiella planticola. The following applies: 1 mM MnCl2 (general assay); pH and temperature of the kinetics not stated in main text; pH 10.0; 40.0 °C. The method, then: isomerase kinetics, D-ribulose to D-arabinose on RdFucI | Kinetic parameters were determined using L-fuculose and D-ribulose as the substrates

One may read the stoichiometry N as a count of units in the complex or per binding partner. In the case of “L-fucose isomerase from Raoultella sp. KDH14 (RdFucI) (enzyme)”, the stoichiometry N in data set [1] and in data set [2] was 6 in each case.

B1: RdFucI (Klebsiella planticola) (protein)
chain: MKRISLPKIGIRPVIDGRRMGVRESLEEQTMNMAKATAALISEKLRHASGAQIECVIADTCIAGMAESAACEEKFSSQNVGVTITVTPCWCYGSETIDMDPLRPKAIWGFNGTERPGAVYLAAALAAHSQKGIPAFSIYGHDVQDADDTTIPADVEEKLLRFARAGLAVASMKGKSYLSVGGVSMGIAGSIVDHNFFESWLGMKVQAVDMTELRRRIDQKIYDEVELEMALAWADKNFRYGEDQNAQHYKRDEEQSRAVLKESLLMAMCIRDMMQGNKKLAEKGLVEESLGYNAIAAGFQGQRHWTDQYPNGDTAEALLNSSFDWNGVREPFVVATENDSLNGVAMLMGHQLTGTAQVFADVRTYWSPDAVERVTGQPLTGLAEHGIIHLINSGSAALDGSCKQRDEEGKPTMKPHWEISQKEADACLAATEWCPAIHEYFRGGGYSSRFLTEGGVPFTMTRVNIIKGLGPVLQIAEGWSVELPKAMHDQLDARTNSTWPTTWFAPRLTGKGPFADVYSVMANWGANHGVLTIGHVGADFITLAAMLRIPVCMHNVEEGKIYRPSSWSAHGMDTEGQDYRACQNYGPLYKR
notes: N-terminal His6 tag (pET28a, NdeI/EcoRI), E. coli BL21(DE3); tag removal not mentioned; homohexamer
By Km is commonly meant the substrate concentration at which the rate is half of its maximum. The kcat is the maximal rate divided by the concentration of active sites. As usually defined, the kcat/Km is the second-order rate constant that governs catalysis at low substrate concentration. For B1, in data set [3], the Km is 13.7 ± 1.1 mM, the catalytic constant (kcat) is 138 ± 5.69 s⁻¹ and the kcat/Km is 10100 ± 493 M⁻¹ s⁻¹.

The values are drawn from paper PMC6894278, “Enzymatic synthesis of L-fucose from L-fuculose using a fucose isomerase from Raoultella sp. and the biochemical and structural analyses of the enzyme” (Biotechnology for Biofuels, 2019).
